Substitutions are numbered along the chain they refer to.
T1: FZD3 CRD (Homo sapiens, UniProt Q9NPG1)
T1 construct: CRD of FZD1, FZD2, FZD3, FZD4, FZD5, FZD6, FZD7, FZD8, FZD9 or FZD10; GPI anchor signal (C); expressed in transfected cells; host or cells: CHO cells, lentiviral pLenti-puro
T1 sequence (Q9NPG1 23-136 limits assumed): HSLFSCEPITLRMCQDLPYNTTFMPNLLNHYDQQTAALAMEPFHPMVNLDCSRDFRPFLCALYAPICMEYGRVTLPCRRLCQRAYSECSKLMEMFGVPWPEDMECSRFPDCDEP

T2: FZD9 CRD (Homo sapiens, UniProt O00144)
T2 construct: G35-A161; GPI anchor signal (C); expressed in transfected cells; host or cells: CHO cells, lentiviral pLenti-puro
T2 sequence (O00144 35-161): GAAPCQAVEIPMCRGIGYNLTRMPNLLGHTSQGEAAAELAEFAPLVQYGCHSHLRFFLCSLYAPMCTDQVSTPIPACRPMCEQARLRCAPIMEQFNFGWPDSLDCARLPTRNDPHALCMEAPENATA

T3: FZD4 CRD (Homo sapiens, UniProt Q9ULV1)
T3 construct: E42-V167; GPI anchor signal (C); expressed in transfected cells; host or cells: CHO cells, lentiviral pLenti-puro
T3 sequence (Q9ULV1 42-167): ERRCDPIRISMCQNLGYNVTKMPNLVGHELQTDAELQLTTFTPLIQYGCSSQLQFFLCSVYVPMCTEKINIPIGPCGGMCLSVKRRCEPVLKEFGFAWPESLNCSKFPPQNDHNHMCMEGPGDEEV

T4: FZD10 CRD (Homo sapiens, UniProt Q9ULW2)
T4 construct: 30-156; GPI anchor signal (C); expressed in transfected cells; host or cells: CHO cells, lentiviral pLenti-puro
T4 sequence (Q9ULW2 30-156): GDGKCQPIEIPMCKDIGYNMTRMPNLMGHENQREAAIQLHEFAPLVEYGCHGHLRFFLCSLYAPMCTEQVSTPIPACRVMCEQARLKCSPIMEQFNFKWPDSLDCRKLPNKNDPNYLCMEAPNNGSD

B1: Fab-2923: anti-FZD5 Fab with antibody variable region Fv-2923; CDR SEQ ID NOs: 35, 36, 62, 100, 138, 162 (antibody, V domains shown)
VH: EVQLVESGGGLVQPGGSLRLSCAASGFNLYYYYMHWVRQAPGKGLEWVASIYSSSGSTSYADSVKGRFTISADTSKNTAYLQMNSLRAEDTAVYYCARGAMDYWGQGTLVTVSS
VL: DIQMTQSPSSLSASVGDRVTITCRASQSVSSAVAWYQQKPGKAPKLLIYSASSLYSGVPSRFSGSRSGTDFTLTISSLQPEDFATYYCQQWYGYSALITFGQGTKVEIK
B2: Fab-2935: anti-FZD5 Fab with antibody variable region Fv-2935; CDR SEQ ID NOs: 35, 36, 74, 111, 150, 178 (antibody, V domains shown)
VH: B1 VH with L29I, M34I, S53P, G99A, M101F
VL: B1 VL with Y94G, S95Y
B3: Fab-2906: anti-FZD5 Fab with antibody variable region Fv-2906; CDR SEQ ID NOs: 35, 36, 45, 84, 121, 158 (antibody, V domains shown)
VH: EVQLVESGGGLVQPGGSLRLSCAASGFNFSSSSIHWVRQAPGKGLEWVAYISSSYGYTYYADSVKGRFTISADTSKNTAYLQMNSLRAEDTAVYYCARTVRGSKKPYFSGWAMDYWGQGTLVTVSS
VL: DIQMTQSPSSLSASVGDRVTITCRASQSVSSAVAWYQQKPGKAPKLLIYSASSLYSGVPSRFSGSRSGTDFTLTISSLQPEDFATYYCQQWSWGFLITFGQGTKVEIK
B4: Fab-2930: anti-FZD5 Fab with antibody variable region Fv-2930; CDR SEQ ID NOs: 35, 36, 69, 107, 145, 153 (antibody, V domains shown)
VH: B1 VH with Y30S, M34I, S53P, S54Y, M101L
VL: B3 VL with S92Y, W93G, G94P, F95Y
B5: Fab-2922: anti-FZD5 Fab with antibody variable region Fv-2922; CDR SEQ ID NOs: 35, 36, 61, 99, 137, 171 (antibody, V domains shown)
VH: B3 VH with F29I, S30Y, S33Y, I34M, Y50S, S53P, S54Y, Y55S, Y59S
VL: B1 VL with W91S, Y92F, G93V, S95P, A96Y

target: T1, FZD3 CRD; test: Immunofluorescence of anti-FZD5 Fab binding to CHO cells overexpressing Frizzled CRD; set-up: key: −: no binding; +: very weak binder; ++: weak binder; +++: good binder; ++++: very good binder
Outline: (§1)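 Immunofluorescence readout of anti-FZD5 Fab staining on CHO cells ectopically overexpressing a single Frizzled cysteine-rich domain. Each CRD was fused to a myc tag and GPI anchor for plasma-membrane display; flow cytometry was run in parallel.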

Which “Immunofluorescence binding, Frizzled CRD overexpressed on CHO cells: FZD3” value (“Immunofluorescence binding … FZD3” below) does the source give for B1 here?
Its value is “−”.

How did the “Immunofluorescence binding … FZD3” value turn out when B2 was run?
Its value is “−”.

For B3, which “Immunofluorescence binding … FZD3” value is on record?
The value was “−”.

How did the “Immunofluorescence binding … FZD3” value turn out when B4 was run?
The value was “−”.

With B5 as the molecule, how does the “Immunofluorescence binding … FZD3” value read?
Its value is “−”.

target: T5, FZD1 CRD (Homo sapiens, UniProt Q9UP38); test: as above; set-up: key: −: no binding; +: very weak binder; ++: weak binder; +++: good binder; ++++: very good binder
T5 construct: D112-P238; GPI anchor signal (C); expressed in transfected cells; host or cells: CHO cells, lentiviral pLenti-puro
Outline: as §1

Which “Immunofluorescence binding, Frizzled CRD overexpressed on CHO cells: FZD1” value does the source give for B1 here?
Its value is “−”.

With B2 as the molecule, how does the “Immunofluorescence binding, Frizzled CRD overexpressed on CHO cells: FZD1” value read?
The value was “−”.

With B3 as the molecule, how does the “Immunofluorescence binding, Frizzled CRD overexpressed on CHO cells: FZD1” value read?
Its value is “−”.

For B4, which “Immunofluorescence binding, Frizzled CRD overexpressed on CHO cells: FZD1” value is on record?
Its value is “−”.

How did the “Immunofluorescence binding, Frizzled CRD overexpressed on CHO cells: FZD1” value turn out when B5 was run?
The value was “−”.

target: T2, FZD9 CRD; test: as above; set-up: key: −: no binding; +: very weak binder; ++: weak binder; +++: good binder; ++++: very good binder
Outline: as §1

How did the “Immunofluorescence binding, Frizzled CRD overexpressed on CHO cells: FZD9” value (shortened to “Immunofluorescence binding … FZD9”) turn out when B1 was run?
Its value is “−”.

Which “Immunofluorescence binding … FZD9” value does the source give for B2 here?
The value was “−”.

How did the “Immunofluorescence binding … FZD9” value turn out when B3 was run?
The value was “−”.

B4 was tested. Which “Immunofluorescence binding … FZD9” value did it give?
Its value is “−”.

How did the “Immunofluorescence binding … FZD9” value turn out when B5 was run?
The value was “−”.

target: T3, FZD4 CRD; test: as above; set-up: key: −: no binding; +: very weak binder; ++: weak binder; +++: good binder; ++++: very good binder
Outline: as §1

For B1, which “Immunofluorescence binding, Frizzled CRD overexpressed on CHO cells: FZD4” value (“Immunofluorescence binding … FZD4” for short) is on record?
The value was “−”.

With B2 as the molecule, how does the “Immunofluorescence binding … FZD4” value read?
The value was “−”.

For B3, which “Immunofluorescence binding … FZD4” value is on record?
The value was “−”.

With B4 as the molecule, how does the “Immunofluorescence binding … FZD4” value read?
Its value is “−”.

For B5, which “Immunofluorescence binding … FZD4” value is on record?
Its value is “−”.

target: T4, FZD10 CRD; test: as above; set-up: key: −: no binding; +: very weak binder; ++: weak binder; +++: good binder; ++++: very good binder
Outline: as §1

With B1 as the molecule, how does the “Immunofluorescence binding, Frizzled CRD overexpressed on CHO cells: FZD10” value (“Immunofluorescence binding … FZD10” below) read?
Its value is “−”.

With B2 as the molecule, how does the “Immunofluorescence binding … FZD10” value read?
Its value is “−”.

Which “Immunofluorescence binding … FZD10” value does the source give for B3 here?
Its value is “+++”.

For B4, which “Immunofluorescence binding … FZD10” value is on record?
Its value is “−”.

B5 was tested. Which “Immunofluorescence binding … FZD10” value did it give?
The value was “−”.

target: T3, FZD4 CRD; test: Flow cytometry of anti-FZD5 Fab binding to CHO cells overexpressing Frizzled CRD
Description: Plasmids: pLCKO lentiviral vector used for knockout (TKO) library construction and expression of individual gRNAs was constructed as described previously (Hart et al., 2015). Briefly, single guide RNA (sgRNA) scaffold was amplified from px330 (Addgene 42230) and cloned into pLKO.TRC005 lentiviral vector (Broad Institute, Cambridge, Mass.) using AgeI/EcoRI restriction sites. BfuAI sites were added at the 5′ end of the sgRNA scaffold for cloning the TKO library or individual gRNA target sequences. Lenti Cas9-2A-BsdR vector used to generate Cas9 stable expression cell lines was constructed as described previously (Hart et al., 2015). Briefly, lentiCRISPR pXPR_001 (Addgene 49535) was modified through removal of the sgRNA scaffold region through NdeI/EcoRI digest and blunt ends generation using Large Klenow Fragment (NEB). 2A-puro was replaced with 2A-BsdR by PCR using the NheI/MluI sites. Each of the 10 human Frizzled cysteine rich domains (CRDs) were cloned into the lentiviral expression plasmid pLenti-puro in the following cassette: FZD_CRD-MYC-GPI.
Flow cytometry: Primary staining of cells was performed by treatment with 200 nM Frizzled profiler Fab. Alexa Fluor 488 AffiniPure F(ab′)2 was used as the secondary antibody (Jackson ImmunoResearch #109-546-097). c-Myc (9E10) IgG1 (primary antibody, Santa Cruz, lot #D0306) and Alexa Fluor 488 IgG (secondary antibody, Life technologies, lot #1458649) were used as controls. Dead cells were excluded by staining with Fixable Viability Dye eFluor 660 (eBioscience, catalogue number 65-0864). All reagents were used as per manufacturer's instructions. Flow cytometry was performed on a BD FACSCanto II flow cytometer (BD Biosciences), and data were analyzed with FlowJo software (FlowJo, LLC).
To confirm that the FZD5-WNT7B circuit is not driven simply by expression and rule out the possibility of a disconnect between RNA and protein levels for the Wnt receptors in HPAF-II cells, a panel of recombinant Fabs were generated, alternatively referred to herein as ‘Frizzled profiler’, that can detect and discriminate all but one of the ten Frizzled receptors. […] To characterize the binding specificity of these Fabs on cells, a panel of 10 CHO cell lines was generated, each expressing the CRD domain of a different myc-tagged Frizzled family member anchored at the plasma membrane through a GPI anchor (CHO-myc-FZDGPI). Despite the high sequence identity between Frizzled family members (FIG. 7A, FIG. 7B), selective Fabs were identified for FZD4, FZD5, FZD6 and FZD10 as assessed by immunofluorescence and flow cytometry (FIG. 7D and FIG. 8). […] The FZD8 CRD is most homologous to that of FZD5 (FIG. 7B). These Fabs can be used to discriminate expression of FZD1, FZD2, FZD4, FZD5, FZD6, FZD7, FZD8, FZD9 and FZD10 (FIG. 7D and FIG. 8). The ‘Frizzled profiler’ therefore consists of 10 different Fabs that can be used to discriminate expression of 9 different Frizzled family members. The Frizzled profiler was then used to confirm that HPAF-II cells express FZD1, FZD5, FZD6 and possibly FZD8 (FIG. 7E).
The binding of anti-FZD5 Fabs to cell surface-expressed Frizzled protein was further determined for each member of the Frizzled family via flow cytometry and immunofluorescence analysis of a panel of 10 CHO cell lines, each ectopically over-expressing the extracellular cysteine-rich domain (CRD) of a different Frizzled protein family member.

With B1 as the molecule, how does the “Median fluorescence, Frizzled CRD overexpressed on CHO cells: FZD4” value (“Median fluorescence” below) read?
The value was 10.55.

With B2 as the molecule, how does the “Median fluorescence” value read?
The value was 7.3.

With B3 as the molecule, how does the “Median fluorescence” value read?
Its value is 12.3.

With B4 as the molecule, how does the “Median fluorescence” value read?
The value was 9.31.

With B5 as the molecule, how does the “Median fluorescence” value read?
Its value is 12.75.
